{"source": "FireProtDB (doi:10.1021/bi00165a022)", "proteins": {"B1": {"name": "Regulatory protein cro wild type, P03040 (protein)", "chain": "MEQRITLKDYAMRFGQTKTAKDLGVYQSAINKAIHAGRKIFLTINADGSVYAEEVKPFPSNKKTTA"}}, "conditions": "Escherichia phage lambda, Thermal, DSC, Potassium phosphate 20 nM, whole UniProt chain shown"}
{"protein": "B1", "values": [{"measurement": "Tm", "setting": "pH 5.18", "value": 35.5, "unit": "°C"}, {"measurement": "heat capacity change of unfolding", "setting": "pH 5.18", "value": 1.51, "unit": "kcal/mol/K"}, {"measurement": "unfolding enthalpy (calorimetric)", "setting": "pH 5.18", "value": 34.9, "unit": "kcal/mol"}, {"measurement": "unfolding enthalpy (van 't Hoff)", "setting": "pH 5.18", "value": 37.3, "unit": "kcal/mol"}, {"measurement": "Tm", "setting": "pH 5.48", "value": 38, "unit": "°C"}, {"measurement": "heat capacity change of unfolding", "setting": "pH 5.48", "value": 1.61, "unit": "kcal/mol/K"}, {"measurement": "unfolding enthalpy (calorimetric)", "setting": "pH 5.48", "value": 39, "unit": "kcal/mol"}, {"measurement": "unfolding enthalpy (van 't Hoff)", "setting": "pH 5.48", "value": 40.7, "unit": "kcal/mol"}, {"measurement": "Tm", "setting": "pH 6", "value": 44, "unit": "°C"}, {"measurement": "heat capacity change of unfolding", "setting": "pH 6", "value": 1.66, "unit": "kcal/mol/K"}, {"measurement": "unfolding enthalpy (calorimetric)", "setting": "pH 6", "value": 48.1, "unit": "kcal/mol"}, {"measurement": "unfolding enthalpy (van 't Hoff)", "setting": "pH 6", "value": 51, "unit": "kcal/mol"}, {"measurement": "Tm", "setting": "pH 7", "value": 46.2, "unit": "°C"}, {"measurement": "heat capacity change of unfolding", "setting": "pH 7", "value": 1.36, "unit": "kcal/mol/K"}, {"measurement": "unfolding enthalpy (calorimetric)", "setting": "pH 7", "value": 52.9, "unit": "kcal/mol"}, {"measurement": "unfolding enthalpy (van 't Hoff)", "setting": "pH 7", "value": 52.4, "unit": "kcal/mol"}]}
